{"source": "patent US20060211084A1", "about": "(TH NITRATE ELIMINATION, published 2006)", "proteins": {"B1": {"name": "simplified eukaryotic nitrate reductase (S-NaR1) (enzyme)", "chain": "MDSIVTEVTYGLEIKKIKDITELPFPVRQDSPLTEVLPTDLKTKDNFVARDPDLLRLTGSHPFNSEPPLTKLYDSGFLTPVSLHFVRNHGPVPYVPDENILDWEVSIEGMVETPYKIKLSDIMEQFDIYSTPVTMVCAGNRRKEQNMVKKGAGFNWGAAGTSTSLWTGCMLGDVIGKARPSKRARFVWMEGADNPANGAYRTCIRLSWCMDPERCIMIAYQQNGEWLHPDHGKPLRVVIPGVIGGRSVKWLKKLVVSDRPSENWYHYFDNRVLPTMVTPEMAKSDDRWWKDERYAIYDLNLQTIICKPENQQVIKISEDEYEIAGFGYNGGGVRIGRIEVSLDKGKSWKLADIDYPEDRYREAGYFRLFGGLVNVCDRMSCLCWCFWKLKVPLSELARSKDILIRGMDERMMVQPRTMYWNVTSMLNNWWYRVAIIREGESLRFEHPVVANKPGGWMDRVKAEGGDILEQKLISEEDLNSAVDHHHHHH", "notes": "Expressed in Pichia pastoris and purified by nickel IMAC; also called nitrate-reducing portion of Pichia angusta NAD(P)H: nitrate reductase"}}, "molecular_target": "the molecule itself", "experiment": "gel filtration chromatography (self-association)"}
{"protein": "B1", "values": [{"measurement": "binding result", "result": "binds"}]}
